Source: patent publication US20250145711A1 (Janssen / Centocor, published 2025)

What was measured:
[1] = target: T1, Human CD3 epsilon (CD3ε), on primary human pan T cells (human, UniProt P07766 23-207); assay: cell-based or functional assay
[2] = target: T1, Human CD3 epsilon (CD3ε), on primary …; assay: cell-based or functional assay; remark: listed apart in the source
[3] = target: T1, Human CD3 epsilon (CD3ε), on primary …; assay: flow cytometry on human T cells, anti-human IgG Fc A647 detection
Procedure, shortened: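 Binding read by flow cytometry on live singlet cells (SYTOX green exclusion) after A647 anti-human IgG Fc secondary at 2 ug/mL, 30 min on ice. Antibody dilution series was first incubated 1 hr at 37 °C with thawed primary human pan T cells, 50,000 per well.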

T1 sequence (P07766 23-207 limits assumed): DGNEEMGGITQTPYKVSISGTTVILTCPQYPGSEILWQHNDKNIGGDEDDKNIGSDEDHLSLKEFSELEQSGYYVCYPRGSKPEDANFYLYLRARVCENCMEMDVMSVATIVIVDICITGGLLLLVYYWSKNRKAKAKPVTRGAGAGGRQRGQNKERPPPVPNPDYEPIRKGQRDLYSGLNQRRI

B1: BC3B110 (bispecific antibody, human IgG1, kappa, L234A L235A)
chain: QVQLVQSGAEVKKPGSSVKVSCKASGYTFTRSTMHWVKQAPGQGLEWMGYINPSSAYTNYNQKFQGRVTLTADKSTSTAYMELSSLRSEDTAVYYCASPQVHYDYSGFPYWGQGTLVTVSSGGSEGKSSGSGSESKSTGGSEIVLTQSPATLSASPGERVTLSCSASSSVSYMNWYQQKPGQAPRRLIYDSSKLASGVPARFSGSGSGRDYTLTISSLEPEDFAVYYCQQWSRNPPTFGGGTKVEIKEPKSSDKTHTCPPCPAPEAAGGPSVFLFPPKPKDTLMISRTPEVTCVVVSVSHEDPEVKFNWYVDGVEVHNAKTKPREEQYNSTYRVVSVLTVLHQDWLNGKEYKCKVSNKALPAPIEKTISKAKGQPREPQVYVYPPSREEMTKNQVSLTCLVKGFYPSDIAVEWESNGQPENNYKTTPPVLDSDGSFALVSKLTVDKSRWQQGNVFSCSVMHEALHNHYTQKSLSLSPG
heavy: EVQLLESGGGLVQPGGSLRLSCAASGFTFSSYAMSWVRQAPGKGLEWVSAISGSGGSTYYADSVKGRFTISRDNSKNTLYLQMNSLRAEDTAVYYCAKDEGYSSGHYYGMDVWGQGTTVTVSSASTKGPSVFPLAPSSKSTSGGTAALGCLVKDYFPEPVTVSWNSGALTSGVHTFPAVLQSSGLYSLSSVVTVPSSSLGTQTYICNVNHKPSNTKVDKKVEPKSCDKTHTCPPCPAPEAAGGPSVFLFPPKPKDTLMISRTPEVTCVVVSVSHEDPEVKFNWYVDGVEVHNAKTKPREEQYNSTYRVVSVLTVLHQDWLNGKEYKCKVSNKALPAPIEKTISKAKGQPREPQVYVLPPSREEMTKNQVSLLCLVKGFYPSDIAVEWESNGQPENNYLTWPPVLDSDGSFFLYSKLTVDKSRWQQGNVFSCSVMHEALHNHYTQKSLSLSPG
light: EIVLTQSPGTLSLSPGERATLSCRASQSISSSFLTWYQQKPGQAPRLLIYGASSRATGIPDRFSGGGSGTDFTLTISRLEPEDFAVYYCQHYGSSPMYTFGQGTKLEIKRTVAAPSVFIFPPSDEQLKSGTASVVCLLNNFYPREAKVQWKVDNALQSGNSQESVTEQDSKDSTYSLSSTLTLSKADYEKHKVYACEVTHQGLSSPVTKSFNRGEC
notes: IgG1 BCMAxCD3; HC1: CD3B2051-N106S HL scFv-Fc; also called BC3B110.001; B2051 HL NtoS
With B1 the “H929 Killing EC50” value [1] was 0.78 nM, the “EC50, Cytotoxicity” value [2] was 0.781 nM and the EC50 [3] was 31.2 nM.

B2: BC3B113 (bispecific antibody, human IgG1, kappa, L234A L235A)
chain: QVQLVQSGAEVKKPGSSVKVSCKASGYTFTRSTMHWVRQAPGQGLEWMGYINPSSAYTNYAQKFQGRVTLTADKSTSTAYMELSSLRSEDTAVYYCASPQVHYDYGGFPYWGQGTLVTVSSGGSEGKSSGSGSESKSTGGSEIVLTQSPATLSASPGERVTLSCSASSSVSYMNWYQQKPGQAPRRWIYDSSKLASGVPARFSGSGSGRDYTLTISSLEPEDFAVYYCQQWSRNPPTFGGGTKVEIKEPKSSDKTHTCPPCPAPEAAGGPSVFLFPPKPKDTLMISRTPEVTCVVVSVSHEDPEVKFNWYVDGVEVHNAKTKPREEQYNSTYRVVSVLTVLHQDWLNGKEYKCKVSNKALPAPIEKTISKAKGQPREPQVYVYPPSREEMTKNQVSLTCLVKGFYPSDIAVEWESNGQPENNYKTTPPVLDSDGSFALVSKLTVDKSRWQQGNVFSCSVMHEALHNHYTQKSLSLSPG
heavy: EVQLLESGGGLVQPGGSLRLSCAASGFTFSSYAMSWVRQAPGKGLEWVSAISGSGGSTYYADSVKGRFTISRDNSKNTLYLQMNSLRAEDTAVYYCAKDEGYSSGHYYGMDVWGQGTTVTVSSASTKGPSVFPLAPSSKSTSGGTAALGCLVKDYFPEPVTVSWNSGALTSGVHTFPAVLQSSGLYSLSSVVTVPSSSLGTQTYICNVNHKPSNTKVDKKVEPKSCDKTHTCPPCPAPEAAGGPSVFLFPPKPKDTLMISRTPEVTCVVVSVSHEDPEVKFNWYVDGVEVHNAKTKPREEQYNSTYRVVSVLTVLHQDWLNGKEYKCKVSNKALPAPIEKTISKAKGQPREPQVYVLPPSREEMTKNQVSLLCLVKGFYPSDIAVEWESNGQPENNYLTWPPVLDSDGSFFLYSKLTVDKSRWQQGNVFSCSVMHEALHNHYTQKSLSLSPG
light: EIVLTQSPGTLSLSPGERATLSCRASQSISSSFLTWYQQKPGQAPRLLIYGASSRATGIPDRFSGGGSGTDFTLTISRLEPEDFAVYYCQHYGSSPMYTFGQGTKLEIKRTVAAPSVFIFPPSDEQLKSGTASVVCLLNNFYPREAKVQWKVDNALQSGNSQESVTEQDSKDSTYSLSSTLTLSKADYEKHKVYACEVTHQGLSSPVTKSFNRGEC
notes: IgG1 BCMAxCD3; HC1: CD3B2089-N106G HL scFv-Fc; also called BC3B113.001; B2089 HL NtoG
B2 was tested, and the “H929 Killing EC50” value [1] was 0.0443 nM, the “EC50, Cytotoxicity” value [2] was 0.0443 nM and the EC50 [3] was 11.1 nM.

B3: BC3B114 (bispecific antibody, human IgG1, kappa, L234A L235A)
chain: QVQLVQSGAEVKKPGSSVKVSCKASGYTFTRSTMHWVRQAPGQGLEWMGYINPSSAYTNYAQKFQGRVTLTADKSTSTAYMELSSLRSEDTAVYYCASPQVHYDYQGFPYWGQGTLVTVSSGGSEGKSSGSGSESKSTGGSEIVLTQSPATLSASPGERVTLSCSASSSVSYMNWYQQKPGQAPRRWIYDSSKLASGVPARFSGSGSGRDYTLTISSLEPEDFAVYYCQQWSRNPPTFGGGTKVEIKEPKSSDKTHTCPPCPAPEAAGGPSVFLFPPKPKDTLMISRTPEVTCVVVSVSHEDPEVKFNWYVDGVEVHNAKTKPREEQYNSTYRVVSVLTVLHQDWLNGKEYKCKVSNKALPAPIEKTISKAKGQPREPQVYVYPPSREEMTKNQVSLTCLVKGFYPSDIAVEWESNGQPENNYKTTPPVLDSDGSFALVSKLTVDKSRWQQGNVFSCSVMHEALHNHYTQKSLSLSPG
heavy: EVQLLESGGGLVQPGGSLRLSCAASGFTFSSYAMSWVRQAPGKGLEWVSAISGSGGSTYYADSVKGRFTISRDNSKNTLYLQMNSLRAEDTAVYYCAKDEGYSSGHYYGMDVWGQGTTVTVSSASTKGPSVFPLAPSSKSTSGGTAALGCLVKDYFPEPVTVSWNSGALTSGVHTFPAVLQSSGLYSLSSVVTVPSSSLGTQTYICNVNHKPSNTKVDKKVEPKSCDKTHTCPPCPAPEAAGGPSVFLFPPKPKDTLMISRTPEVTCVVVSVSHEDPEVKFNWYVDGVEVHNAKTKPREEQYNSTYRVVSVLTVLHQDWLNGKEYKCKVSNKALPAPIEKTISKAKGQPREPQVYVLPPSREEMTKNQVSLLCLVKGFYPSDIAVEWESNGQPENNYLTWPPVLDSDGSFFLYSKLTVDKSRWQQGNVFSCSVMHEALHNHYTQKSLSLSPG
light: EIVLTQSPGTLSLSPGERATLSCRASQSISSSFLTWYQQKPGQAPRLLIYGASSRATGIPDRFSGGGSGTDFTLTISRLEPEDFAVYYCQHYGSSPMYTFGQGTKLEIKRTVAAPSVFIFPPSDEQLKSGTASVVCLLNNFYPREAKVQWKVDNALQSGNSQESVTEQDSKDSTYSLSSTLTLSKADYEKHKVYACEVTHQGLSSPVTKSFNRGEC
notes: IgG1 BCMAxCD3; HC1: CD3B2089-N106Q HL scFv-Fc; also called BC3B114.001; B2089 HL NtoQ
With B3 the “H929 Killing EC50” value [1] was 0.0126 nM, the “EC50, Cytotoxicity” value [2] was 0.0126 nM and the EC50 [3] was 3.2 nM.

B4: BC3B115 (bispecific antibody, human IgG1, kappa, L234A L235A)
chain: QVQLVQSGAEVKKPGSSVKVSCKASGYTFTRSTMHWVRQAPGQGLEWMGYINPSSAYTNYAQKFQGRVTLTADKSTSTAYMELSSLRSEDTAVYYCASPQVHYDYSGFPYWGQGTLVTVSSGGSEGKSSGSGSESKSTGGSEIVLTQSPATLSASPGERVTLSCSASSSVSYMNWYQQKPGQAPRRWIYDSSKLASGVPARFSGSGSGRDYTLTISSLEPEDFAVYYCQQWSRNPPTFGGGTKVEIKEPKSSDKTHTCPPCPAPEAAGGPSVFLFPPKPKDTLMISRTPEVTCVVVSVSHEDPEVKFNWYVDGVEVHNAKTKPREEQYNSTYRVVSVLTVLHQDWLNGKEYKCKVSNKALPAPIEKTISKAKGQPREPQVYVYPPSREEMTKNQVSLTCLVKGFYPSDIAVEWESNGQPENNYKTTPPVLDSDGSFALVSKLTVDKSRWQQGNVFSCSVMHEALHNHYTQKSLSLSPG
heavy: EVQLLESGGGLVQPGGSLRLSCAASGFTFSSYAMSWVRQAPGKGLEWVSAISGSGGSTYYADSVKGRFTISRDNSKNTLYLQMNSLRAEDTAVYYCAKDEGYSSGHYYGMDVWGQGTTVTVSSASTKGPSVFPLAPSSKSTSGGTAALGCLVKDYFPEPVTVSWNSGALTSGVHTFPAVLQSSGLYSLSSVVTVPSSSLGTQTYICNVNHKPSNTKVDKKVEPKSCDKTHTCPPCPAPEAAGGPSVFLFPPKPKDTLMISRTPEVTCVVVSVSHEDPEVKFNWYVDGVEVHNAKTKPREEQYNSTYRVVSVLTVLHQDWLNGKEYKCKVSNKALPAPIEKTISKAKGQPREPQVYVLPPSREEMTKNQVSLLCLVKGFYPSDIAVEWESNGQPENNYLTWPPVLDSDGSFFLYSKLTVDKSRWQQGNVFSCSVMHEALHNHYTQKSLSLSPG
light: EIVLTQSPGTLSLSPGERATLSCRASQSISSSFLTWYQQKPGQAPRLLIYGASSRATGIPDRFSGGGSGTDFTLTISRLEPEDFAVYYCQHYGSSPMYTFGQGTKLEIKRTVAAPSVFIFPPSDEQLKSGTASVVCLLNNFYPREAKVQWKVDNALQSGNSQESVTEQDSKDSTYSLSSTLTLSKADYEKHKVYACEVTHQGLSSPVTKSFNRGEC
notes: IgG1 BCMAxCD3; HC1: CD3B2089-N106S HL scFv-Fc; also called BC3B115.001; B2089 HL NtoS
For B4, the “H929 Killing EC50” value [1] was 0.155 nM, the “EC50, Cytotoxicity” value [2] was 0.155 nM and the EC50 [3] was 24 nM.

B5: BC3B53 (bispecific antibody, human IgG1, kappa, L234A L235A)
chain: EIVLTQSPATLSASPGERVTLSCSASSSVSYMNWYQQKPGQAPRRWIYDSSKLASGVPARFSGSGSGRDYTLTISSLEPEDFAVYYCQQWSRNPPTFGGGTKVEIKGGSEGKSSGSGSESKSTGGSQVQLVQSGAEVKKPGSSVKVSCKASGYTFTRSTMHWVKQAPGQGLEWIGYINPSSAYTNYNQKFQGRVTLTADKSTSTAYMELSSLRSEDTAVYYCASPQVHYDYQGFPYWGQGTLVTVSSEPKSSDKTHTCPPCPAPEAAGGPSVFLFPPKPKDTLMISRTPEVTCVVVSVSHEDPEVKFNWYVDGVEVHNAKTKPREEQYNSTYRVVSVLTVLHQDWLNGKEYKCKVSNKALPAPIEKTISKAKGQPREPQVYVYPPSREEMTKNQVSLTCLVKGFYPSDIAVEWESNGQPENNYKTTPPVLDSDGSFALVSKLTVDKSRWQQGNVFSCSVMHEALHNHYTQKSLSLSPG
heavy: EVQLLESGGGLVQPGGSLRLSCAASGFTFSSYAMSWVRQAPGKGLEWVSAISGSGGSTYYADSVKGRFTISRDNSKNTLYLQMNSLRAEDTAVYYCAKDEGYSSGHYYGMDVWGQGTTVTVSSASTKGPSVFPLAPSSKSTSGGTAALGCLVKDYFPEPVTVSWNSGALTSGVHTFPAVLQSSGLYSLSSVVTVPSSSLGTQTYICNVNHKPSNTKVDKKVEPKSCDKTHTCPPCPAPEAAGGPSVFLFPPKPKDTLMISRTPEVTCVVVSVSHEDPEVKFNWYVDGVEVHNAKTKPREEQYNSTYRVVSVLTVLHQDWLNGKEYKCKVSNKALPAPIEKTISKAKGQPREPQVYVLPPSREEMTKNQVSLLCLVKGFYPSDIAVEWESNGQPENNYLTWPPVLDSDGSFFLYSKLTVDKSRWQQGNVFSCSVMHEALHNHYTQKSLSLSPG
light: EIVLTQSPGTLSLSPGERATLSCRASQSISSSFLTWYQQKPGQAPRLLIYGASSRATGIPDRFSGGGSGTDFTLTISRLEPEDFAVYYCQHYGSSPMYTFGQGTKLEIKRTVAAPSVFIFPPSDEQLKSGTASVVCLLNNFYPREAKVQWKVDNALQSGNSQESVTEQDSKDSTYSLSSTLTLSKADYEKHKVYACEVTHQGLSSPVTKSFNRGEC
notes: IgG1 BCMAxCD3; HC1: CD3B2030-N106Q LH scFv-Fc; also called BC3B53.001; B2030 LH NtoQ
B5 was tested, and the “H929 Killing EC50” value [1] was 0.0278 nM, the “EC50, Cytotoxicity” value [2] was 0.0278 nM and the EC50 [3] was 19.6 nM.

B6: BC3B117 (bispecific antibody, human IgG1, kappa, L234A L235A)
chain: EIVLTQSPATLSASPGERVTLSCSASSSVSYMNWYQQKPGQAPRRWIYDSSKLASGVPARFSGSGSGRDYTLTISSLEPEDFAVYYCQQWSRNPPTFGGGTKVEIKGGSEGKSSGSGSESKSTGGSQVQLVQSGAEVKKPGSSVKVSCKASGYTFTRSTMHWVKQAPGQGLEWIGYINPSSAYTNYNQKFQGRVTLTADKSTSTAYMELSSLRSEDTAVYYCASPQVHYDYAGFPYWGQGTLVTVSSEPKSSDKTHTCPPCPAPEAAGGPSVFLFPPKPKDTLMISRTPEVTCVVVSVSHEDPEVKFNWYVDGVEVHNAKTKPREEQYNSTYRVVSVLTVLHQDWLNGKEYKCKVSNKALPAPIEKTISKAKGQPREPQVYVYPPSREEMTKNQVSLTCLVKGFYPSDIAVEWESNGQPENNYKTTPPVLDSDGSFALVSKLTVDKSRWQQGNVFSCSVMHEALHNHYTQKSLSLSPG
heavy: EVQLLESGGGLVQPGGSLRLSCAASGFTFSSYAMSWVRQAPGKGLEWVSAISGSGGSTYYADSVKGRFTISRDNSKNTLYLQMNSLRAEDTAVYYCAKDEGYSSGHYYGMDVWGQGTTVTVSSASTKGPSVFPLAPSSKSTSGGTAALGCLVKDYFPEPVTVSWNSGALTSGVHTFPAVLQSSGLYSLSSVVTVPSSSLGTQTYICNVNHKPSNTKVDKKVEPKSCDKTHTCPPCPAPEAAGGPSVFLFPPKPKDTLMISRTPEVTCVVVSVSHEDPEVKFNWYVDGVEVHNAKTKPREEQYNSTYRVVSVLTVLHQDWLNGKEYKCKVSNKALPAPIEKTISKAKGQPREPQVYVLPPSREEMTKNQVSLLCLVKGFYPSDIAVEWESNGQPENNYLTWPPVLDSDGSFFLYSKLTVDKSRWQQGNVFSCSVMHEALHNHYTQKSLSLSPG
light: EIVLTQSPGTLSLSPGERATLSCRASQSISSSFLTWYQQKPGQAPRLLIYGASSRATGIPDRFSGGGSGTDFTLTISRLEPEDFAVYYCQHYGSSPMYTFGQGTKLEIKRTVAAPSVFIFPPSDEQLKSGTASVVCLLNNFYPREAKVQWKVDNALQSGNSQESVTEQDSKDSTYSLSSTLTLSKADYEKHKVYACEVTHQGLSSPVTKSFNRGEC
notes: IgG1 BCMAxCD3; HC1: CD3B2030-N106A LH scFv-Fc; also called BC3B117.001; B2030 LH NtoA
B6 was tested, and the “H929 Killing EC50” value [1] was 0.149 nM, the “EC50, Cytotoxicity” value [2] was 0.149 nM and the EC50 [3] was 60.9 nM.

B7: BC3B118 (bispecific antibody, human IgG1, kappa, L234A L235A)
chain: EIVLTQSPATLSASPGERVTLSCSASSSVSYMNWYQQKPGQAPRRWIYDSSKLASGVPARFSGSGSGRDYTLTISSLEPEDFAVYYCQQWSRNPPTFGGGTKVEIKGGSEGKSSGSGSESKSTGGSQVQLVQSGAEVKKPGSSVKVSCKASGYTFTRSTMHWVKQAPGQGLEWIGYINPSSAYTNYNQKFQGRVTLTADKSTSTAYMELSSLRSEDTAVYYCASPQVHYDYGGFPYWGQGTLVTVSSEPKSSDKTHTCPPCPAPEAAGGPSVFLFPPKPKDTLMISRTPEVTCVVVSVSHEDPEVKFNWYVDGVEVHNAKTKPREEQYNSTYRVVSVLTVLHQDWLNGKEYKCKVSNKALPAPIEKTISKAKGQPREPQVYVYPPSREEMTKNQVSLTCLVKGFYPSDIAVEWESNGQPENNYKTTPPVLDSDGSFALVSKLTVDKSRWQQGNVFSCSVMHEALHNHYTQKSLSLSPG
heavy: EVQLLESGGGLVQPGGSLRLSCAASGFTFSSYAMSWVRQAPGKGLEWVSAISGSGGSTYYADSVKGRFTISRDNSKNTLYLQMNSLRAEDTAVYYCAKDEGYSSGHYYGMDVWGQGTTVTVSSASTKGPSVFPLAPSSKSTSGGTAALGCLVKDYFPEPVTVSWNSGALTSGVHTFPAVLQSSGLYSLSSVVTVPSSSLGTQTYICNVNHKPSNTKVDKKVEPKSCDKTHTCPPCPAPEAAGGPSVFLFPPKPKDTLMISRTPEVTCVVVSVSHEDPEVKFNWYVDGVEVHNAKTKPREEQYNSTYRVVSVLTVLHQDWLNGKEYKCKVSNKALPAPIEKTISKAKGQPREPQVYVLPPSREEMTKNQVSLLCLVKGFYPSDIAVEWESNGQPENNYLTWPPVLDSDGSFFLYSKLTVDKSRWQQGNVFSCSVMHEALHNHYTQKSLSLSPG
light: EIVLTQSPGTLSLSPGERATLSCRASQSISSSFLTWYQQKPGQAPRLLIYGASSRATGIPDRFSGGGSGTDFTLTISRLEPEDFAVYYCQHYGSSPMYTFGQGTKLEIKRTVAAPSVFIFPPSDEQLKSGTASVVCLLNNFYPREAKVQWKVDNALQSGNSQESVTEQDSKDSTYSLSSTLTLSKADYEKHKVYACEVTHQGLSSPVTKSFNRGEC
notes: IgG1 BCMAxCD3; HC1: CD3B2030-N106G LH scFv-Fc; also called BC3B118.001; B2030 LH NtoG
In the case of B7, the “H929 Killing EC50” value [1] is reported as 0.745 nM, the “EC50, Cytotoxicity” value [2] is reported as 0.745 nM and the EC50 [3] is reported as 257 nM.
